This data set can be described thus: soluble on expression in E. coli; label from the status in PepcDB or PDB records.
Consider “MDSNLMSSVSTSAILGGENFADLFAESLKSQDMKSGEVISAEVVRVDHNFVVVNAGLKSEALIPLEEFLNDQGELEVQPGDFVSVAIDSLENGYGDTILSRDRAKRLSAWLQLEQALENGELVTGTITGKVKGGLTVMTNGIRAFLPGSLVDLRPVKDTTPYEGKTLEFKVIKLDRKRNNVVLSRRQVLEASMGEERQKLLETLHEGAVVKGVVKNITDYGAFVDLGGIDGLLHITDMAWRRVRHPSEVLQVGQEVEAKVLKFDQEKSRVSLGVKQLGEDPWVGLARRYPQGTRLFGKVTNLTDYGAFVEVEAGIEGLVHVSEMDWTNKNVDPRKVVTLGEEVEVMVLEIDEDRRRISLGMKQCRQNPWEEFATNFKRGDKVRGAIKSITDFGVFVGLPGGIDGLVHLSDLSWTESGEEAVRNFKKGDELEAVVLGIDTEKERISLGIKQLEGDPFNNFVATHDKGAVVPGTIKSVEPKGAVITLSVDVEGYLRASEISSGRVEDATTVLKAGENIEAMIVNIDRKARSIQLSIKARDNAETAETIQRMSEASASSGTTNLGALLKAKLDQQRNDGLEHHHHHH”, for which the “soluble on expression in E. coli” value is recorded as “not soluble”.
As for “MQARKLAVDGAIEFTPRVFADDRGLLILPYQEEAFVEAHGGPLFRVAQTIHSMSKRGVVRGIHYTVTPPGTAKYVYCARGKAMDIVIDIRVGSPTFGQWDSVLMDQQDPRAVYLPVGVGHAFVALEDDTVFSYMASRSYVTQDELALSALDPALGLPIDIGVEPIVSDRDRVAITLAEAQRQGLLPDYTTSQEIERRLTAVPVST”, the “soluble on expression in E. coli” value was “soluble”.
In the case of “MSKSLKKLVEESREKNQPEVDMSDRGISNMLDVNGLFTLSHITQLVLSHNKLTMVPPNIAELKNLEVLNFFNNQIEELPTQISSLQKLKHLNLGMNRLNTLPRGFGSLPALEVLDLTYNNLSENSLPGNFFYLTTLRALYLSDNDFEILPPDIGKLTKLQILSLRDNDLISLPKEIGELTQLKELHIQGNRLTVLPPELGNLDLTGQKQVFKAENNPWVTPIADQFQLGVSHVFEYIRSETYKYLYGRHMQANPEPPKKNNDKSKKISRKPLAAKNR”, the “soluble on expression in E. coli” value was “not soluble”.
As to “MGSDKIHHHHHHMTKNSETGHISEGGGILTRPDDATIAYRRLEGKTPGVVFLHGFHSDMEGSKALALEAMCQAQGRAFLRFDYFGHGKSSGDVALGTIGRWAADAVAVIGELTKGPQILVGSSLGGWIALLAALEMKDKVAGLVGVAAAPDFTEDLMWQDFTFEQRRTLMETGELELPNCHEPDNPWRIHRSLIEDGRNHLLLRDLIQIHCPVWLIQGQKDEDVPWQTALRLADCLASEQVEIVLVKDGDHRLSRDGDLIRLTNMVAAMLGMIQEL”, the “soluble on expression in E. coli” value was “not soluble”.
To “MGSDKIHHHHHHMRLFTSKSRYLIGVDIGTTSVKLVDIQRQQGVFHLRSYGTEILSEGIVIDKLIVDTEAVGNTIAGLARRCQAVGSSAATAVSGSAVITKIIDMDMVLNDVEREAQIRLDADQYIPYPLDDVNLDFEVLGPSLINDDMVQVLLAASRSENVDQRVDALTFGGLQTKVMDIESHAIERAFGLMVDSLPNLPELVALVDIGHNQTTLYVAKNGEFIYSREQLFGGSQLTEAIQNRYGLSAEEASISQREHALPEDYYPDVLTPFIENTIQQITRSLQFYFSSSQYSSIDHVVLAGGSSAIAGLAGMAQQRLGVPVSIANPFINMTIAPHIDHEQLAIDAPSLMAACGLALRSFD” belongs “not soluble”; to “MTKITLSDLPLREELRGEHAYGAPQLNVDIRLNTNENPYPPSEALVADLVATVDKIATELNRYPERDAVELRDELAAYITKQTGVAVTRDNLWAANGSNEILQQLLQAFGGPGRTALGFQPSYSMHPILAKGTHTEFIAVSRGADFRIDMDVALEEIRAKQPDIVFVTTPNNPTGDVTSLDDVERIINVAPGIVIVDEAYAEFSPSPSATTLLEKYPTKLVVSRTMSKAFDFAGGRLGYFVANPAFIDAVMLVRLPYHLSALSQAAAIVALRHSADTLGTVEKLSVERVRVAARLEELGYAVVPSESNFVFFGDFSDQHAAWQAFLDRGVLIRDVGIAGHLRTTIGVPEENDAFLDAAAEIIKLNLSAWSHPQFEK”, “soluble”; to “SQAPHKEHLYKLLVIGDLGVGKTSIIKRYVHQNFSSHYRATIGVDFALKVLHWDPETVVRLQLWDIAGQERFGNMTRVYYREAMGAFIVFDVTRPATFEAVAKWKNDLDSKLSLPNGKPVSVVLLANKCDQGKDVLMNNGLKMDQFCKEHGFVGWFETSAKENINIDEASRCLVKHILANECDLMESIEPDVVKPHLTSTKVASCSGCAKS”, “soluble”.
As for “MGSDKIHHHHHHVKEIRERGGTVKQQLITTHDGGRLALYSYGTVDAPGERRVVVIGGAFLTALIYRPFSEALSKGLGDGWAVDVYDRRGRGESTPQPADYSMATEIADVRTIMDATGARNLFGHSLGGSVALNAVQEFVGTAHQPDRLAVYDAAVNIDGSVDTSWLDSFERSVNEGNVPHALAKLKKGMQPGTAMARIPEPVLAGLMALVSRTKVNRLFKEVMPSGVGELKAVFDEADHVRDFSVLPPNTRFMVGSKSPRYYKVTAELLHRAVPGSVLQVSPKCVHASIPAAVKELVADISAYYKG”, the “soluble on expression in E. coli” value is given as “not soluble”.
Regarding “VALSADIVGMHYRYPDHYEVEREKIREYAVAVQNDDAWYFEEDGAAELGYKGLLAPLTFICVFGYKAQAAFFKHANIATAEAQIVQVDQVLKFEKPIVAGDKLYCDVYVDSVREAHGTQIIVTKNIVTNEEGDLVQETYTTLAGRAGEDGEGFSDGAA”, the “soluble on expression in E. coli” value is “soluble”.
Consider “MGNQAGSKTKLVIIQGPTASGKSELAVRLAEACGGDVVNADSMQVYRGMDIGTAKPSPELVARVPHHLYDIVDPDVNFTAADYRREAGRVITEIHSRGKRPILVGGTGLYIKTLIGGLAPSPGADDTIRAELEEDARSEGAAALHDRLAQVDPAAAARLHPNDRVRIVRALEVFLMTGKPLSEFQEEHRFADEPYDCLKLGISVERDDLYRRINERVNRMFAEGFVEEVSGLLNAGYSPDLKAMGAIGYKEVCAYLAGTCSLDEARELVQRNTRRYAKRQLTWFRKDPAIKWVEYPANFDSISTIAMKFFGLEHHHHHH”, for which the “soluble on expression in E. coli” value is “not soluble”.
Regarding “MSLKNLITKLENEERLNQEEANALWDLDLFTLGKYAHKKRTKLHGKKVYFNINRHINPTNICADTCKFCAFSAHRKNPNPYLMTHEEIMKIVDETVKRETKEVHIVSAHNKDTTWQWYLEIFKMIKEKYPNLHVKAMTAAEIDFLHRRFKMSYEEVIEKMLEYGVDSMPGGGAEIFDEEVRKKICHGKVSSENWLKIHKLWHEKSKQSNATMLFGHIEERHHRIDHMLRLRDLQDQTGGFNAFIPLVWQRDKSFIQTDKIMDSEEILKTIAISRLVLDNIKNIKAYWATMTLNLAMVAQEFGANDLDGTIEKESIQSAGGAKSAKGTSLKTFIDMIKTSNLIPVERDSLYNELKTYEGHHHHHH”, the “soluble on expression in E. coli” value was “not soluble”.
With “MSLKYSSTTADYLVWSDAMNLIRKLAKDENYKISLLIALGCFTGLRISDILSLRWKQILDADEFTVIEKKTDKVRTIRLNPQLQHHIKECYEHINPVGINAPILISQKGTIFTVQRINIILKEVKKKYRLKIKNFSCHSLRKTFGRQVYNMNSDNAELALVKLMELFNHSSVAITKRYLGLRQEEILQTYDCLSF”, the “soluble on expression in E. coli” value is “not soluble”.
“GHWNQPWKCLVDHDGVFDNRMMGYATEELWFSEWENGGTPWENPAGYEQFNPVLHVDKWRVPMLVIHGQKDFRIPVEQGLAAFGALQRKGIESKLLYFHDENHWVLNPQNSIQWHDTVNAWLKKYIG”: the “soluble on expression in E. coli” value is “not soluble”.
In the case of “MGSDKIHHHHHHMSQTLEQVIQNAGDLVNFVRNQQVGPNVYPGVPAEYSNWRNEQWAWAHSAVLYNQSYHMVDLAVKGPDAFKMLEHLGINSFKNFQPDRAKQFVPVTPDGYVIGDVILFYLDENHFNLVGRAPTIEWVEYHAASGNWNVTVERDERWAMRTDGKRNSYRFQIQGPNAMKIIEKATGKTAPDLKFFHMTRMTIGGKEVRALRHGMAGQPGFELMGPWEDYGAVHAALVEAGKGFQMALVGGRAYSSNTLESGWIPSPFPAIYTGEALRPYREWLSANSYEAKCSVGGSYVPETIEGYYTTPWDLGYGPFVKFDHDFIGRAALEKMAAEGKHRTKVTLALDNEDVMRVQSSALSKGDRAKFMEYPSAVYSMHPFDQVLADGKMVGLSTWIGYTANEGKFLTLAMMEPGYVEPGTQVSLLWGEPNGGTTKPTVEPHVQTEIKATVAAVPYSEVARDSYAEGWRTKK”, the “soluble on expression in E. coli” value is on record as “not soluble”.
With “MTISFNTVPSNTLVPLFYAEMNNSAANTAVTSAPALLIGHASNDAAIEVNSLVLMPSADYARQICGAGSQLARMVEVYRQTDPFGELYVIAVPEARGAAATVRVTVAGEAEESGTLSLYVGRSRVQVPVVNGDDATAVATAIKEAVNGVITLPFTASSDAGVVTLTARHKGLYGNELPVCLNYYGSGGGEILPAGLRVVTEVGAAGSGAPDLTAAVAAMGDEAFDFIGLPFNDAASINMMMTEMNDSSGRWSYARQLYGHVYTAKLGTLSELVGAGDMHNQQHITLAGYEKETQSPVDELVASRLAREAVFIRNDPARPTQTGELVGMLPAPKGKRFIMTEQQTLLSHGVATAYVEGGTLQIQRSVTTYKKNAYGVADNSYLDSETLHTSAYVLRKLKSVITSKYGRHKLANDGTRFGPGQAIVTPAVIKGELLATYRQMERAGIVENYDLFKQYLIVERDADNPNRLNTLFPPDYVNQLRVFAVVNQFRLQYSEESA”, the “soluble on expression in E. coli” value is “not soluble”.
Turning to “MGSSHHHHHHSSGLVPRGSHMQQLPKAIIIGVRKGGTRALLEMLNLHPAVVKASQEIHFFDNDENYGKGIEWYRKKMPFSYPQQITIEKSPAYFITEEVPERIYKMNSSIKLLIIVREPTTRAISDYTQVLEGKERKNKTYYKFEKLAIDPNTCEVNTKYKAVRTSIYTKHLERWLKYFPIEQFHVVDGDRLITEPLPELQLVEKFLNLPPRISQYNLYFNATRGFYCLRFNEIFNKCLAGSKGRIHPEVDPSVITKLRKFFHPFNQKFYQITGRTLNWP”, the “soluble on expression in E. coli” value is recorded as “soluble”.
Turning to “HMVHITLDPDTANPWLILSEDRRQVRLGDTQQSIPGNEERFDSYPMVLGAQHFHSGKHYWEVDVTGKEAWDLGVCRDSVRRKGHFLLSSKSGFWTIWLWNKQKYEAGTYPQTPLHLQVPPCQVGIFLDYEAGMVSFYNITDHGSLIYSFSECAFTGPLRPFFSPGFNDGGKNTAPLTLCPL”, the “soluble on expression in E. coli” value is reported as “soluble”.
Take “SLTGKKAEEEYLYQLEQLNQLFTKTEALEESKIFYKNIKFERGLFASHIQDQIEIHKANETIIIPLSSTLYHGPLPLDRVAKLNFVPAIFSSQTLLGKNATTQAFFDITESEKPLQLNFAMNYSLSGNAELKLASGQYHNEQSKTDFDWSNVVLNIDLNQNTPNNYVLSVDTFNSNAPNHAVSTASSIKIKDLVVQGSLQSTKWPFIYSGNINSKIGYFEQNTESAESGEKFSLIQKNSQANLTTQVEGDTVNIINKTNLDELHINGNNLGKVTNNVEFNHIDGNALQELLNILVAIGKADSECLYLKHWCKNYNKQAWPLRIISLKLSLPLFLFLMKKAKWHWI”: the “soluble on expression in E. coli” value is given as “not soluble”.
As to “MLKADYIPYTLKFKEPAGTSRGVLHTKQTYFVRVYDDTFPSRAGYGEAALFRGLSAEEGADYEERLAEVCNGVCGFTPDAWQAYPSLCFGMETALADFEGGGLLFPSAFTSGEAGIPINGLI”, the “soluble on expression in E. coli” value is listed as “not soluble”.
For “TDPDCDRVGIVVKDSSGEYVVLNGNQVGSLLVRYILESLVEENKLPKNNPTIIKTIVTSELGAKIAKAYNVDCLNTLTGFKFIGEKIKAFEESNDRSFIMGYEESYGYLIGTHARDKDGVVSSLMICEMAAYYSSKGMNLYEALIDTYNKFGY”, the “soluble on expression in E. coli” value is reported as “not soluble”.

The record behind these values is the DeepSol protein solubility set.
